The values below come from FireProtDB (doi:10.1002/cbic.201402128).

The chains are these.
B1: Haloalkane dehalogenase, D4Z2G1 (parent)
chain: MSLGAKPFGEKKFIEIKGRRMAYIDEGTGDPILFQHGNPTSSYLWRNIMPHCAGLGRLIACDLIGMGDSDKLDPSGPERYAYAEHRDYLDALWEALDLGDRVVLVVHDWGSALGFDWARRHRERVQGIAYMEAIAMPIEWADFPEQDRDLFQAFRSQAGEELVLQDNVFVEQVLPGLILRPLSEAEMAAYREPFLAAGEARRPTLSWPRQIPIAGTPADVVAIARDYAGWLSESPIPKLFINAEPGALTTGRMRDFCRTWPNQTEITVAGAHFIQEDSPDEIGAAIAAFVRRLRPA

The variants in this data set derive from B1. The note with it: Sphingobium indicum (strain DSM 16413 / CCM 7287 / MTCC 6362 / UT26 / NBRC 101211 / UT26S); pH 7.5; Thermal; fluorescence; Na-Hepes 50 mM; reversible: no; structure 1MJ5; whole UniProt chain shown.

Values joined by “and” are separate entries in the source; they are usually repeats but may differ in a detail not shown here. Identical values can stand only once.

In the case of E15T, the Tm came to 52 °C and the “change of melting temperature, mutant - wild type (higher = more stable)” value (from here on “change of melting temperature, mutant”) amounted to 1 °C.
For A200P the same measures were 50.5 °C and -0.5 °C.
Taken in the same sequence, the figures for A129V were 50 °C and -1 °C.
Taken in the same sequence, the figures for T249V were 60 °C and 9 °C.
Take T249L: the Tm came to 62.5 °C and the “change of melting temperature, mutant” value was found to be 11.5 °C.
With T249M, the Tm was determined as 60.5 °C and the “change of melting temperature, mutant” value stood at 9.5 °C.
Turning to A185P, the Tm is 50.5 °C and the “change of melting temperature, mutant” value was -0.5 °C.
For D219Q the same measures were 50 °C and -1 °C.
For G229Q the same measures were 54 °C and 3 °C.
For G229R the same measures were 51.5 °C and 0.5 °C.
With G229T, the Tm came out at 51.5 °C and the “change of melting temperature, mutant” value was 0.5 °C.
For G229A the same measures were 51.5 °C and 0.5 °C.
In the case of G229E, the Tm is 51.5 °C and the “change of melting temperature, mutant” value was 0.5 °C.
Taken in the same sequence, the figures for G229S were 52 °C and 1 °C.
For G229N the same measures were 51.5 °C and 0.5 °C.
Taken in the same sequence, the figures for G229D were 51.5 °C and 0.5 °C.
In the case of D226K, the Tm amounted to 50.5 °C and the “change of melting temperature, mutant” value is -0.5 °C.
On to S75C R79C, for which the Tm is 45.5 °C and 44 °C; the “change of melting temperature, mutant” value is -5.5 °C and -5 °C.
As to E233T, the Tm came to 51.5 °C and the “change of melting temperature, mutant” value turned out to be 0.5 °C.
Taken in the same sequence, the figures for E233Q were 51.5 °C and 0.5 °C.
In the case of E233H, the Tm was found to be 51.5 °C and the “change of melting temperature, mutant” value was determined as 0.5 °C.
For E233S the same measures were 51.5 °C and 0.5 °C.
For E139H the same measures were 61.5 °C and 10.5 °C.
On to E139K, for which the Tm came to 58.5 °C and the “change of melting temperature, mutant” value stood at 7.5 °C.
Taken in the same sequence, the figures for E139T were 60.5 °C and 9.5 °C.
Taken in the same sequence, the figures for E139Q were 58.5 °C and 7.5 °C.
Taken in the same sequence, the figures for C61P were 50.5 °C and -0.5 °C.
Consider A95H, for which the Tm was 50.5 °C and the “change of melting temperature, mutant” value was -0.5 °C.
As for A196C A200C, the Tm was 48.5 °C and 46 °C; the “change of melting temperature, mutant” value was -2.5 °C and -3 °C and -0.5 °C.
With D87K, the Tm is 50 °C and the “change of melting temperature, mutant” value was -1 °C.
For D87L the same measures were 51.5 °C and 0.5 °C.
On to R101H, for which the Tm turned out to be 51 °C and the “change of melting temperature, mutant” value amounted to 0 °C.
Taken in the same sequence, the figures for D255A were 51.5 °C and 0.5 °C.
Taken in the same sequence, the figures for D255K were 50.5 °C and -0.5 °C.
For D255Q the same measures were 50.5 °C and -0.5 °C.
Regarding A81E, the Tm was 48 °C and the “change of melting temperature, mutant” value is -3 °C.
Taken in the same sequence, the figures for A81K were 52 °C and 1 °C.
Taken in the same sequence, the figures for A81P were 48 °C and -3 °C.
Taken in the same sequence, the figures for A81N were 51 °C and 0 °C.
Turning to A218P, the Tm is 51.5 °C and the “change of melting temperature, mutant” value is 0.5 °C.
Taken in the same sequence, the figures for A218E were 51 °C and 0 °C.
Taken in the same sequence, the figures for E26H were 50 °C and -1 °C.
Taken in the same sequence, the figures for E26R were 50 °C and -1 °C.
For E26V, the Tm is 51 °C and the “change of melting temperature, mutant” value came to 0 °C.
E26Q: the Tm is 51 °C and the “change of melting temperature, mutant” value is 0 °C.
Consider S41Q, for which the Tm is 49 °C and the “change of melting temperature, mutant” value was -2 °C.
On to A153K, for which the Tm stood at 61 °C and the “change of melting temperature, mutant” value is 10 °C.
In the case of R20L, the Tm came out at 50 °C and the “change of melting temperature, mutant” value was -1 °C.
Taken in the same sequence, the figures for T264L were 50.5 °C and -0.5 °C.
Take S183C E186C: the Tm was 47 °C and the “change of melting temperature, mutant” value is -4 °C.
For E78H the same measures were 51 °C and 0 °C.
Taken in the same sequence, the figures for S75C E199C were 48.5 °C and -2.5 °C.
For R20C D70C the same measures were 45.5 °C and -3.5 °C.
Regarding E192K, the Tm stood at 54 °C and the “change of melting temperature, mutant” value is 3 °C.
In the case of E192L, the Tm was 51.5 °C and the “change of melting temperature, mutant” value worked out at 0.5 °C.
As for E192R, the Tm worked out at 53.5 °C and the “change of melting temperature, mutant” value came out at 2.5 °C.
For V220M the same measures were 61 °C and 10 °C.
Regarding A5E, the Tm was found to be 51.5 °C and the “change of melting temperature, mutant” value turned out to be 0.5 °C.
For A5L, the Tm stood at 50 °C and the “change of melting temperature, mutant” value is -1 °C.
As for A247F, the Tm is 67.5 °C and the “change of melting temperature, mutant” value was 16.5 °C.
Regarding A83L, the Tm amounted to 51.5 °C and the “change of melting temperature, mutant” value amounted to 0.5 °C.
Taken in the same sequence, the figures for A83N were 50 °C and -1 °C.
Q172K: the Tm came to 61.5 °C and the “change of melting temperature, mutant” value came to 10.5 °C.
For the variant H51C G283C, the Tm was 48.5 °C and 46 °C; the “change of melting temperature, mutant” value is -2.5 °C and -3 °C.
With V103I, the Tm stood at 51 °C and the “change of melting temperature, mutant” value was 0 °C.
As to D97K, the Tm was 50.5 °C and the “change of melting temperature, mutant” value was -0.5 °C.
For D97R, the Tm came to 51 °C and the “change of melting temperature, mutant” value is 0 °C.
As to D97N, the Tm turned out to be 50 °C and the “change of melting temperature, mutant” value was -1 °C.
As to I48C G283C, the Tm was 49 °C and the “change of melting temperature, mutant” value was -2 °C.
Taken in the same sequence, the figures for A197P were 52.5 °C and 1.5 °C.
With Q35V, the Tm is 48.5 °C and the “change of melting temperature, mutant” value was -2.5 °C.
Taken in the same sequence, the figures for Q35L were 48.5 °C and -2.5 °C.
For Q35I the same measures were 50.5 °C and -0.5 °C.
For A133V the same measures were 51 °C and 0 °C.
On to R86L, for which the Tm stood at 49 °C and the “change of melting temperature, mutant” value was -2 °C.
V106L: the Tm amounted to 50.5 °C and the “change of melting temperature, mutant” value is -0.5 °C.
For the variant A5C A185C, the Tm is 56 °C and 55.5 °C; the “change of melting temperature, mutant” value is 5 °C and 6.5 °C.
As for D149Q, the Tm worked out at 62 °C and the “change of melting temperature, mutant” value came to 11 °C.
For D149K the same measures were 67.5 °C and 16.5 °C.
Taken in the same sequence, the figures for D30E were 51 °C and 0 °C.
As for D30H, the Tm stood at 51 °C and the “change of melting temperature, mutant” value is 0 °C.
Taken in the same sequence, the figures for D30A were 51 °C and 0 °C.
For D30V, the Tm worked out at 49 °C and the “change of melting temperature, mutant” value was -2 °C.
Turning to R225L, the Tm is 51.5 °C and the “change of melting temperature, mutant” value came out at 0.5 °C.
With A189F, the Tm is 51.5 °C and the “change of melting temperature, mutant” value came to 0.5 °C.
With A189Y, the Tm amounted to 51.5 °C and the “change of melting temperature, mutant” value was determined as 0.5 °C.
Taken in the same sequence, the figures for D68L were 49.5 °C and -1.5 °C.
For D68H the same measures were 52 °C and 1 °C.
For D68N the same measures were 50.5 °C and -0.5 °C.
With S2C N47C, the Tm turned out to be 48 °C and the “change of melting temperature, mutant” value was -3 °C.
With K6E, the Tm turned out to be 51 °C and the “change of melting temperature, mutant” value amounted to 0 °C.
On to S183D, for which the Tm amounted to 50 °C and the “change of melting temperature, mutant” value was -1 °C.
With A53K, the melting temperature (Tm) amounted to 51 °C and the “change of melting temperature, mutant” value was determined as 0 °C.
For A53L the same measures were 52 °C and 1 °C.
D147L: the Tm stood at 65 °C and the “change of melting temperature, mutant” value is 14 °C.
For D147H the same measures were 59.5 °C and 8.5 °C.
Regarding D147M, the Tm was found to be 66 °C and the “change of melting temperature, mutant” value is 15 °C.
With D147Y, the Tm came out at 65 °C and the “change of melting temperature, mutant” value amounted to 14 °C.
In the case of V106C G114C, the Tm came out at 50 °C and the “change of melting temperature, mutant” value was 1 °C.
In the case of C257A, the Tm amounted to 48.5 °C and the “change of melting temperature, mutant” value was -2.5 °C.
Taken in the same sequence, the figures for S42A were 49.5 °C and -1.5 °C.
As to E244V, the Tm stood at 50.5 °C and the “change of melting temperature, mutant” value is -0.5 °C.
For E244I the same measures were 50 °C and -1 °C.
As to D100T, the Tm was found to be 51 °C and the “change of melting temperature, mutant” value is 0 °C.
For G176N the same measures were 51 °C and 0 °C.
As to G176A, the Tm was 51.5 °C and the “change of melting temperature, mutant” value came out at 0.5 °C.
For E123S the same measures were 51 °C and 0 °C.
For the variant R254L, the Tm was 49.5 °C and the “change of melting temperature, mutant” value was -1.5 °C.
Consider L248F, for which the Tm came out at 61.5 °C and the “change of melting temperature, mutant” value was 10.5 °C.
Regarding L248W, the Tm was determined as 62 °C and the “change of melting temperature, mutant” value worked out at 11 °C.
Take L3S: the Tm is 50.5 °C and the “change of melting temperature, mutant” value was -0.5 °C.
Regarding Q152L, the Tm was 61.5 °C and the “change of melting temperature, mutant” value was found to be 10.5 °C.
For D166N the same measures were 53 °C and 2 °C.
For the variant D166K, the Tm is 53.5 °C and the “change of melting temperature, mutant” value came out at 2.5 °C.
Consider V105I, for which the Tm amounted to 50 °C and the “change of melting temperature, mutant” value was -1 °C.
For S42C A60C, the Tm was determined as 47.5 °C and the “change of melting temperature, mutant” value was -1.5 °C.
